From the supplement of paper PMC10567573 come the findings set out here.

To fix the notation:
B1: NCK2 (parent)
chain: YVERKNSLKKGSLVKNLKDTLGLG
B2: NECAB1 (parent)
chain: FSPNSPQFNVSGPGLLEEDNQWMT
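Also: lentivirally expressed fusions sorted by FACS into six bins by GFP to DsRed ratio, PSI derived from sequencing read proportions per bin multiplied by bin number.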

In one data set the parent is B1. The data set can be described thus: protein stability index of a GFP-peptide fusion (GPS, HEK-293T) (PSI 1-6); higher = more stable. As to conditions: c terminus: a fixed tail appended.
In the case of NVERKNSLKKGSLVKNLKDTLGLG, the protein stability index is 3.71. AVERKNSLKKGSLVKNLKDTLGLG: the protein stability index was 3.59. Take DVERKNSLKKGSLVKNLKDTLGLG: the protein stability index was 4.13. Turning to IVERKNSLKKGSLVKNLKDTLGLG, the protein stability index amounted to 3.03. Consider MVERKNSLKKGSLVKNLKDTLGLG, for which the protein stability index was determined as 3.64. As to GVERKNSLKKGSLVKNLKDTLGLG, the protein stability index was 3.92. In the case of EVERKNSLKKGSLVKNLKDTLGLG, the protein stability index was 4.06. Same read-out and setting: under HVERKNSLKKGSLVKNLKDTLGLG stands 4.01; under CVERKNSLKKGSLVKNLKDTLGLG, 3.41; under KVERKNSLKKGSLVKNLKDTLGLG, 3.86. Still for that read-out and setting: for LVERKNSLKKGSLVKNLKDTLGLG the value was 3.28; for FVERKNSLKKGSLVKNLKDTLGLG, 1.81.

The variants in a further data set derive from B2. Described as above. As to conditions: c terminus: a fixed tail appended.
As for FSPNSPQFNVSGPGLLEEDNQWMP, the protein stability index is 2.69.

FSPNSPQFNVSGPGLLEEDNQWMM: the protein stability index came out at 2.4. The same measure, in the same setting: for FSPNSPQFNVSGPGLLEEDNQWME the value was 3.92; for FSPNSPQFNVSGPGLLEEDNQWML, 3. With FSPNSPQFNVSGPGLLEEDNQWMS, the protein stability index came to 3.27.

FSPNSPQFNVSGPGLLEEDNQWMI: the protein stability index is 2.69.

As to FSPNSPQFNVSGPGLLEEDNQWMC, the protein stability index was found to be 2.91. As for FSPNSPQFNVSGPGLLEEDNQWMA, the protein stability index was determined as 2.82.

For the variant FSPNSPQFNVSGPGLLEEDNQWMH, the protein stability index came to 2.99. On to FSPNSPQFNVSGPGLLEEDNQWMK, for which the protein stability index worked out at 2.37. As to FSPNSPQFNVSGPGLLEEDNQWMW, the protein stability index worked out at 1.69. As to FSPNSPQFNVSGPGLLEEDNQWMR, the protein stability index came out at 2.97.

For FSPNSPQFNVSGPGLLEEDNQWMQ, the protein stability index was 3.04.

For FSPNSPQFNVSGPGLLEEDNQWMY, the protein stability index was found to be 2.57. Regarding FSPNSPQFNVSGPGLLEEDNQWMF, the protein stability index was determined as 1.88. The same measure, in the same setting: for FSPNSPQFNVSGPGLLEEDNQWMD the value was 3.57; for FSPNSPQFNVSGPGLLEEDNQWMN, 2.84. In the case of FSPNSPQFNVSGPGLLEEDNQWMV, the protein stability index worked out at 2.36. Consider FSPNSPQFNVSGPGLLEEDNQWMG, for which the protein stability index was 3.01.

Consider FSPNSPQFNVSGPGLFEEDNQWMT, for which the protein stability index was found to be 2.42. Turning to FSPNSPQFNVSGPGLIEEDNQWMT, the protein stability index turned out to be 2.91. The same measure, in the same setting: for FSPNSPQFNVSGPGLDEEDNQWMT the value was 3.94; for FSPNSPQFNVSGPGLEEEDNQWMT, 4. In the case of FSPNSPQFNVSGPGLYEEDNQWMT, the protein stability index came to 2.73.

For FSPNSPQFNVSGPGLNEEDNQWMT, the protein stability index was 2.97. Still for that read-out and setting: under FSPNSPQFNVSGPGLSEEDNQWMT stands 3.23; under FSPNSPQFNVSGPGLWEEDNQWMT, 2.25; under FSPNSPQFNVSGPGLGEEDNQWMT, 2.73. Take FSPNSPQFNVSGPGLAEEDNQWMT: the protein stability index was 3.29.

On to FSPNSPQFNVSGPGLPEEDNQWMT, for which the protein stability index worked out at 3.52. On to FSPNSPQFNVSGPGLREEDNQWMT, for which the protein stability index worked out at 3.12. With FSPNSPQFNVSGPGLTEEDNQWMT, the protein stability index was found to be 3.53. The same measure, in the same setting: under FSPNSPQFNVSGPGLKEEDNQWMT stands 2.94. The same measure, in the same setting: for FSPNSPQFNVSGPGLMEEDNQWMT the value was 2.66. In the case of FSPNSPQFNVSGPGLVEEDNQWMT, the protein stability index was 3.18. For the variant FSPNSPQFNVSGPGLHEEDNQWMT, the protein stability index stood at 3.98. Turning to FSPNSPQFNVSGPGLCEEDNQWMT, the protein stability index came to 3.03.

For the variant FSPNSPQFNVSGPGLQEEDNQWMT, the protein stability index was determined as 3.54.

FSPNSPQFNVSGPGLLEEDNCWMT: the protein stability index amounted to 2.14. Take FSPNSPQFNVSGPGLLEEDNFWMT: the protein stability index was 1.87.

For the variant FSPNSPQFNVSGPGLLEEDNDWMT, the protein stability index amounted to 1.97. Turning to FSPNSPQFNVSGPGLLEEDNMWMT, the protein stability index was 1.84. As to FSPNSPQFNVSGPGLLEEDNKWMT, the protein stability index was 3.06. Same read-out and setting: under FSPNSPQFNVSGPGLLEEDNTWMT stands 2.41; under FSPNSPQFNVSGPGLLEEDNRWMT, 2.28; under FSPNSPQFNVSGPGLLEEDNVWMT, 1.72. As to FSPNSPQFNVSGPGLLEEDNSWMT, the protein stability index was 2.15. FSPNSPQFNVSGPGLLEEDNGWMT: the protein stability index was 2.54.

In the case of FSPNSPQFNVSGPGLLEEDNLWMT, the protein stability index was 2.08. Consider FSPNSPQFNVSGPGLLEEDNNWMT, for which the protein stability index was 1.84. Consider FSPNSPQFNVSGPGLLEEDNPWMT, for which the protein stability index was found to be 2. For FSPNSPQFNVSGPGLLEEDNHWMT, the protein stability index was 2.57.

Consider FSPNSPQFNVSGPGLLEEDNEWMT, for which the protein stability index was found to be 3.69. On the same count and under the same terms, for FSPNSPQFNVSGPGLLEEDNIWMT the value was 1.95; for FSPNSPQFNVSGPGLLEEDNAWMT, 2.45. In the case of FSPNSPQFNVSGPGLLEEDNYWMT, the protein stability index was found to be 2.29. The same measure, in the same setting: for FSPNSPQFNVSGPGLLEEDNQAMT the value was 3.96; for FSPNSPQFNVSGPGLLEEDNQPMT, 4.21. FSPNSPQFNVSGPGLLEEDNQGMT: the protein stability index turned out to be 3.85. Still for that read-out and setting: under FSPNSPQFNVSGPGLLEEDNQLMT stands 3.71; under FSPNSPQFNVSGPGLLEEDNQEMT, 4.42. With FSPNSPQFNVSGPGLLEEDNQNMT, the protein stability index stood at 4.07. As for FSPNSPQFNVSGPGLLEEDNQSMT, the protein stability index is 4.03. On to FSPNSPQFNVSGPGLLEEDNQKMT, for which the protein stability index was 3.54. The same measure, in the same setting: under FSPNSPQFNVSGPGLLEEDNQMMT stands 3.39. Regarding FSPNSPQFNVSGPGLLEEDNQIMT, the protein stability index came out at 3.67. As for FSPNSPQFNVSGPGLLEEDNQDMT, the protein stability index turned out to be 4.65. As to FSPNSPQFNVSGPGLLEEDNQTMT, the protein stability index is 3.83. For the variant FSPNSPQFNVSGPGLLEEDNQHMT, the protein stability index came to 3.84. Consider FSPNSPQFNVSGPGLLEEDNQVMT, for which the protein stability index turned out to be 3.79. With FSPNSPQFNVSGPGLLEEDNQQMT, the protein stability index came to 4.03. For FSPNSPQFNVSGPGLLEEDNQFMT, the protein stability index was found to be 3.59. Turning to FSPNSPQFNVSGPGLLEEDNQRMT, the protein stability index came to 3.93. The same measure, in the same setting: under FSPNSPQFNVSGPGLLEEDNQCMT stands 4.1; under FSPNSPQFNVSGPGLLEEDNQYMT, 3.49; under FSPNSPQFNVSGPGLLMEDNQWMT, 2.54.

As for FSPNSPQFNVSGPGLLKEDNQWMT, the protein stability index was determined as 1.97. Still for that read-out and setting: under FSPNSPQFNVSGPGLLYEDNQWMT stands 2.46; under FSPNSPQFNVSGPGLLGEDNQWMT, 2.49. Still for that read-out and setting: for FSPNSPQFNVSGPGLLFEDNQWMT the value was 1.69; for FSPNSPQFNVSGPGLLWEDNQWMT, 2.82; for FSPNSPQFNVSGPGLLNEDNQWMT, 2.33.
